Assay results from patent US20150344570A1 (published 2015).

B1: GpH7-A5/GpH7-B3 variant K334_14T/GpL16-k0 (antibody, human IgG1, kappa)
heavy 1: not shown
heavy 2: not shown
light: DIVMTQSPLSLPVTPGEPASISCQASESLVHSNRNTYLHWYLQKPGQSPQLLIYKVSNRFSGVPDRFSGSGSGTDFTLKISRVEAEDVGVYYCSQNTHVPPTFGQGTKVEIERTVAAPSVFIFPPSDEQLKSGTASVVCLLNNFYPREAKVQWKVDNALQSGNSQESVTEQDSKDSTYSLSSTLTLSKADYEKHKVYACEVTHQGLSSPVTKSFNRGEC
notes: one H chain mutated; also called He Ab
B2: GpH7-B3 variant K326_07I/GpL16-k0 (antibody, human IgG1, kappa)
heavy: not shown
light: B1 light
notes: also called Ho Ab K326_07I
B3: GpH7-A5/GpH7-B3 variant S337_09D/GpL16-k0 (antibody, human IgG1, kappa)
heavy 1: not shown
heavy 2: not shown
light: B1 light
notes: as for B1
B4: GpH7-B3 variant A330_01G/GpL16-k0 (antibody, human IgG1, kappa)
heavy: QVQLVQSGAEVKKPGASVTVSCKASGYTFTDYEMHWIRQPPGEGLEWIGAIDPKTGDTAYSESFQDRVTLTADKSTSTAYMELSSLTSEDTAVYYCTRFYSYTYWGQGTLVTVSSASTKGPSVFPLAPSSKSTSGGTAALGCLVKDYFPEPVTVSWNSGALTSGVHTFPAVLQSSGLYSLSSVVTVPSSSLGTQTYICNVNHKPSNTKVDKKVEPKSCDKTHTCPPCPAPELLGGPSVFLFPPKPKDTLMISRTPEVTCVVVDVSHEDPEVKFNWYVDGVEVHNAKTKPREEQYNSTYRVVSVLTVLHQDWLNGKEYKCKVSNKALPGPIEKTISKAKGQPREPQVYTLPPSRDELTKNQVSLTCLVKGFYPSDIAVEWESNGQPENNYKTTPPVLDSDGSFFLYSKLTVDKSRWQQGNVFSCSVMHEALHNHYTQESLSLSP
light: B1 light
notes: also called Ho Ab A330_01G
B5: GpH7-B3 variant I332_10E/GpL16-k0 (antibody, human IgG1, kappa)
heavy: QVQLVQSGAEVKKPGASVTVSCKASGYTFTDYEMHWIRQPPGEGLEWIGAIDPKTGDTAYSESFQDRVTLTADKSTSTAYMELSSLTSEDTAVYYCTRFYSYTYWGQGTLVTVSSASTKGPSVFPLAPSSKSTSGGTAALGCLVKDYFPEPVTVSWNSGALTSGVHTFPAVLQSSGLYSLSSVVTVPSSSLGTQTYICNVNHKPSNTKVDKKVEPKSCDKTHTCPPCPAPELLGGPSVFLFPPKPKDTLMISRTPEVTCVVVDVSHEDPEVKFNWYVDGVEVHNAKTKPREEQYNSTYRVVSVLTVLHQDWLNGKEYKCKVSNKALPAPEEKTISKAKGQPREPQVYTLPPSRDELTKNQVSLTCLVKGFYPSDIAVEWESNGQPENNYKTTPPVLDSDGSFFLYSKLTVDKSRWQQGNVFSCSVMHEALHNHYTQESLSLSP
light: B1 light
notes: also called Ho Ab I332_10E
B6: GpH7-A5/GpH7-B3 variant S324_02A/GpL16-k0 (antibody, human IgG1, kappa)
heavy 1: not shown
heavy 2: not shown
light: B1 light
notes: as for B1
B7: GpH7-A5/GpH7-B3 variant S324_09D/GpL16-k0 (antibody, human IgG1, kappa)
heavy 1: not shown
heavy 2: not shown
light: B1 light
notes: as for B1
B8: GpH7-B3 variant H268_01G/GpL16-k0 (antibody, human IgG1, kappa)
heavy: not shown
light: B1 light
notes: also called Ho Ab H268_01G
B9: GpH7-A5/GpH7-B3 variant S267_02A/GpL16-k0 (antibody, human IgG1, kappa)
heavy 1: not shown
heavy 2: not shown
light: B1 light
notes: as for B1
B10: GpH7-A5/GpH7-B3 variant K334_15Y/GpL16-k0 (antibody, human IgG1, kappa)
heavy 1: not shown
heavy 2: not shown
light: B1 light
notes: as for B1
B11: GpH7-A5/GpH7-B3 variant S337_14T/GpL16-k0 (antibody, human IgG1, kappa)
heavy 1: not shown
heavy 2: not shown
light: B1 light
notes: as for B1
B12: GpH7-A5/GpH7-B3 variant P271_01G/GpL16-k0 (antibody, human IgG1, kappa)
heavy 1: not shown
heavy 2: not shown
light: B1 light
notes: as for B1
B13: GpH7-B3 variant H268_09D/GpL16-k0 (antibody, human IgG1, kappa)
heavy: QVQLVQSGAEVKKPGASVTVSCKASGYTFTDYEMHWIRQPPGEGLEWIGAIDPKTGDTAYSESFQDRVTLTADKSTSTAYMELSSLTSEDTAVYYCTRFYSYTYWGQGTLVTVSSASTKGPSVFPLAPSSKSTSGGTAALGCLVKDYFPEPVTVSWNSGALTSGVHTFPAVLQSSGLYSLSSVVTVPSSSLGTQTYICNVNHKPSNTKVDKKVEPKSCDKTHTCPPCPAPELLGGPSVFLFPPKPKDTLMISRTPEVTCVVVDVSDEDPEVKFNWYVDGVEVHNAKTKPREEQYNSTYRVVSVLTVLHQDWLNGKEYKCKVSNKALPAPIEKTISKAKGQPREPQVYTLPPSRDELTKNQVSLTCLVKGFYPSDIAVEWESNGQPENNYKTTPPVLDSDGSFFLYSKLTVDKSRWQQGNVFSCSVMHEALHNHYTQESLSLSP
light: B1 light
notes: also called Ho Ab H268_09D
B14: GpH7-B3 variant G236_10E/GpL16-k0 (antibody, human IgG1, kappa)
heavy: not shown
light: B1 light
notes: also called Ho Ab G236_10E
B15: GpH7-A5/GpH7-B3 variant S324_10E/GpL16-k0 (antibody, human IgG1, kappa)
heavy 1: not shown
heavy 2: not shown
light: B1 light
notes: as for B1
B16: GpH7-A5/GpH7-B3 variant S324_20W/GpL16-k0 (antibody, human IgG1, kappa)
heavy 1: not shown
heavy 2: not shown
light: B1 light
notes: as for B1
B17: GpH7-A5/GpH7-B3 variant T335_10E/GpL16-k0 (antibody, human IgG1, kappa)
heavy 1: not shown
heavy 2: not shown
light: B1 light
notes: as for B1
B18: GpH7-B3 variant I332_09D/GpL16-k0 (antibody, human IgG1, kappa)
heavy: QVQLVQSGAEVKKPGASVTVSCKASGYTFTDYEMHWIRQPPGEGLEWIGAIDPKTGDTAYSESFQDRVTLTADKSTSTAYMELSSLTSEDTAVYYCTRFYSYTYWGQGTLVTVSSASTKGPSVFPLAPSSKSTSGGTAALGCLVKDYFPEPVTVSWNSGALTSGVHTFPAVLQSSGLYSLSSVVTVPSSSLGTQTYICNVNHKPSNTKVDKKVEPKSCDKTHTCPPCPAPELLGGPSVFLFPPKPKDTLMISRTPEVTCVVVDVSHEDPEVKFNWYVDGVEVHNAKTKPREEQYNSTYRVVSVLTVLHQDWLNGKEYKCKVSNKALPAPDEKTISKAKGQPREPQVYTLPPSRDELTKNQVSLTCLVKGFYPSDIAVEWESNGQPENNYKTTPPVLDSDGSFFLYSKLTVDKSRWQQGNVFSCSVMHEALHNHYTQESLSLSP
light: B1 light
notes: also called Ho Ab I332_09D
B19: GpH7-B3 variant A327_09D/GpL16-k0 (antibody, human IgG1, kappa)
heavy: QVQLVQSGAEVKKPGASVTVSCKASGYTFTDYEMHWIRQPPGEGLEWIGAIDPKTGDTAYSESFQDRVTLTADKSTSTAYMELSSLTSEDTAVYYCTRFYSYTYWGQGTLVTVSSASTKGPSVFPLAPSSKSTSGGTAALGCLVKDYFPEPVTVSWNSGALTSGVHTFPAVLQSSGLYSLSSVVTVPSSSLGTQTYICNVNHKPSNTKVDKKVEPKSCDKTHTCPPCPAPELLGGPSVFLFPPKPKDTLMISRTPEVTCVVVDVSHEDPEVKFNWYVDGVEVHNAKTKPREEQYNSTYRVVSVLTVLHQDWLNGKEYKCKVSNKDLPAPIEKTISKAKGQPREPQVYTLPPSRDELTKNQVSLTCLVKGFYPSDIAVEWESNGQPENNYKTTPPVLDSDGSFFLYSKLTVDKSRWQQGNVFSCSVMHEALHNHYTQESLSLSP
light: B1 light
notes: also called Ho Ab A327_09D
B20: GpH7-B3 variant H268_13S/GpL16-k0 (antibody, human IgG1, kappa)
heavy: not shown
light: B1 light
notes: also called Ho Ab H268_13S
B21: GpH7-A5/GpH7-B3 variant T335_13S/GpL16-k0 (antibody, human IgG1, kappa)
heavy 1: not shown
heavy 2: not shown
light: B1 light
notes: as for B1
B22: GpH7-A5/GpH7-B3 variant T335_16H/GpL16-k0 (antibody, human IgG1, kappa)
heavy 1: not shown
heavy 2: not shown
light: B1 light
notes: as for B1
B23: GpH7-B3 variant G237_20W/GpL16-k0 (antibody, human IgG1, kappa)
heavy: not shown
light: B1 light
notes: also called Ho Ab G237_20W
B24: GpH7-A5/GpH7-B3 variant L235_20W/GpL16-k0 (antibody, human IgG1, kappa)
heavy 1: not shown
heavy 2: not shown
light: B1 light
notes: as for B1
B25: GpH7-A5/GpH7-B3 variant S337_10E/GpL16-k0 (antibody, human IgG1, kappa)
heavy 1: not shown
heavy 2: not shown
light: B1 light
notes: as for B1
B26: GpH7-B3 variant G237_04F/GpL16-k0 (antibody, human IgG1, kappa)
heavy: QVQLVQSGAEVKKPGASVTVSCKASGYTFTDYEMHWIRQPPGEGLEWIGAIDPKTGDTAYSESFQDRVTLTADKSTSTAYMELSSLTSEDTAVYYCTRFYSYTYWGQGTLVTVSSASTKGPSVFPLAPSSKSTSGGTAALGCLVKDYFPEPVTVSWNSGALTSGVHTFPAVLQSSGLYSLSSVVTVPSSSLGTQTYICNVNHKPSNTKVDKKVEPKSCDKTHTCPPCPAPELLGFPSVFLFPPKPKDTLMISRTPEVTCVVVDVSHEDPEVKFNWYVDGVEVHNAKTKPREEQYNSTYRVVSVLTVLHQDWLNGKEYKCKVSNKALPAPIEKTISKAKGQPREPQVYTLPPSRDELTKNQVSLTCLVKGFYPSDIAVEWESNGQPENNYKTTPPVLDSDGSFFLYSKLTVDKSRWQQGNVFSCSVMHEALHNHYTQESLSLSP
light: B1 light
notes: also called Ho Ab G237_04F
B27: GpH7-B3 variant I336_08L/GpL16-k0 (antibody, human IgG1, kappa)
heavy: not shown
light: B1 light
notes: also called Ho Ab I336_08L
B28: GpH7-A5/GpH7-B3 variant S324_06M/GpL16-k0 (antibody, human IgG1, kappa)
heavy 1: not shown
heavy 2: not shown
light: B1 light
notes: as for B1
B29: GpH7-A5/GpH7-B3 variant T335_19Q/GpL16-k0 (antibody, human IgG1, kappa)
heavy 1: not shown
heavy 2: not shown
light: B1 light
notes: as for B1
B30: GpH7-A5/GpH7-B3 variant Q295_07I/GpL16-k0 (antibody, human IgG1, kappa)
heavy 1: not shown
heavy 2: not shown
light: B1 light
notes: as for B1
B31: GpH7-A5/GpH7-B3 variant S239_09D/GpL16-k0 (antibody, human IgG1, kappa)
heavy 1: not shown
heavy 2: not shown
light: B1 light
notes: as for B1
B32: GpH7-A5/GpH7-B3 variant T335_07I/GpL16-k0 (antibody, human IgG1, kappa)
heavy 1: not shown
heavy 2: not shown
light: B1 light
notes: as for B1
B33: GpH7-A5/GpH7-B3 variant K334_16H/GpL16-k0 (antibody, human IgG1, kappa)
heavy 1: not shown
heavy 2: not shown
light: B1 light
notes: as for B1
B34: GpH7-B3 variant I332_04F/GpL16-k0 (antibody, human IgG1, kappa)
heavy: not shown
light: B1 light
notes: also called Ho Ab I332_04F
B35: GpH7-B3 variant A327_10E/GpL16-k0 (antibody, human IgG1, kappa)
heavy: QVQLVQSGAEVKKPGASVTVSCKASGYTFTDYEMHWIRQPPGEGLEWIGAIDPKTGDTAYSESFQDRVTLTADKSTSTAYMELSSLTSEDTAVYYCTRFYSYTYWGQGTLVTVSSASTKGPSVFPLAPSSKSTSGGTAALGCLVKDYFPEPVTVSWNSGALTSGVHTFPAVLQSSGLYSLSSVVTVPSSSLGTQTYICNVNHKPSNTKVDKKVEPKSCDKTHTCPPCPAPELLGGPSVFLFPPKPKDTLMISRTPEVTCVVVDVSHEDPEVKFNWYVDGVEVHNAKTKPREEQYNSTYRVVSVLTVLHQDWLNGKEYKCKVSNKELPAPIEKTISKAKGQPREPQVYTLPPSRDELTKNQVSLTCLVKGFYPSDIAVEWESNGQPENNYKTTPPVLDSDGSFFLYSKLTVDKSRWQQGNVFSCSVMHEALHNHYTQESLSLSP
light: B1 light
notes: also called Ho Ab A327_10E
B36: GpH7-B3 variant H268_18N/GpL16-k0 (antibody, human IgG1, kappa)
heavy: not shown
light: B1 light
notes: also called Ho Ab H268_18N
B37: GpH7-B3 variant G236_09D/GpL16-k0 (antibody, human IgG1, kappa)
heavy: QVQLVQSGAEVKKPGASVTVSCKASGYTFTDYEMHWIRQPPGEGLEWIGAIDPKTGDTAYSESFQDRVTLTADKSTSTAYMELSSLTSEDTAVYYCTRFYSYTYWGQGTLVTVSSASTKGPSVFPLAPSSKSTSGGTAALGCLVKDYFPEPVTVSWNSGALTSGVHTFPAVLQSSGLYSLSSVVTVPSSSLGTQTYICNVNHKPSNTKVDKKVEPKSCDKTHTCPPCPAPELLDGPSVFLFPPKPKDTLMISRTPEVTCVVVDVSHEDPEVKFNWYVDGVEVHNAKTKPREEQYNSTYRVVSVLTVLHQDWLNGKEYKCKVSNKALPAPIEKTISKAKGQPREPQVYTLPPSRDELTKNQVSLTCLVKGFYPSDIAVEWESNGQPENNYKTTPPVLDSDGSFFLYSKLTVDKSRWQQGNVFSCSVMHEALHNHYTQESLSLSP
light: B1 light
notes: also called Ho Ab G236_09D
B38: GpH7-B3 variant I332_15Y/GpL16-k0 (antibody, human IgG1, kappa)
heavy: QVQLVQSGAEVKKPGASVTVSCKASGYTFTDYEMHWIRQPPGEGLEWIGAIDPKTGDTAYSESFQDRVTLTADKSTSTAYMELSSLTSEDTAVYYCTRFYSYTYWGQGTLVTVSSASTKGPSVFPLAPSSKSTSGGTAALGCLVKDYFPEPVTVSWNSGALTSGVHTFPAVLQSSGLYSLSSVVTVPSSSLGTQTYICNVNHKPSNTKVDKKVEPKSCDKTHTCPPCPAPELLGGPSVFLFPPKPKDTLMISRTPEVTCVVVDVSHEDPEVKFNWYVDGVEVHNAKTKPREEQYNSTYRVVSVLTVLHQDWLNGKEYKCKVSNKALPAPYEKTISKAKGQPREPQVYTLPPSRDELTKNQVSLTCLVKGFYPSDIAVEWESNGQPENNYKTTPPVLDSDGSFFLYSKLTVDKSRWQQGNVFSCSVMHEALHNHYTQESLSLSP
light: B1 light
notes: also called Ho Ab I332_15Y
B39: GpH7-A5/GpH7-B3 variant L328_14T/GpL16-k0 (antibody, human IgG1, kappa)
heavy 1: not shown
heavy 2: not shown
light: B1 light
notes: as for B1
B40: GpH7-A5/GpH7-B3 variant L328_13S/GpL16-k0 (antibody, human IgG1, kappa)
heavy 1: not shown
heavy 2: not shown
light: B1 light
notes: as for B1
B41: GpH7-A5/GpH7-B3 variant Q295_05P/GpL16-k0 (antibody, human IgG1, kappa)
heavy 1: not shown
heavy 2: not shown
light: B1 light
notes: as for B1
B42: GpH7-A5/GpH7-B3 variant L328_02A/GpL16-k0 (antibody, human IgG1, kappa)
heavy 1: not shown
heavy 2: not shown
light: B1 light
notes: as for B1
B43: GpH7-A5/GpH7-B3 variant T335_01G/GpL16-k0 (antibody, human IgG1, kappa)
heavy 1: not shown
heavy 2: not shown
light: B1 light
notes: as for B1
B44: GpH7-B3 variant I332_06M/GpL16-k0 (antibody, human IgG1, kappa)
heavy: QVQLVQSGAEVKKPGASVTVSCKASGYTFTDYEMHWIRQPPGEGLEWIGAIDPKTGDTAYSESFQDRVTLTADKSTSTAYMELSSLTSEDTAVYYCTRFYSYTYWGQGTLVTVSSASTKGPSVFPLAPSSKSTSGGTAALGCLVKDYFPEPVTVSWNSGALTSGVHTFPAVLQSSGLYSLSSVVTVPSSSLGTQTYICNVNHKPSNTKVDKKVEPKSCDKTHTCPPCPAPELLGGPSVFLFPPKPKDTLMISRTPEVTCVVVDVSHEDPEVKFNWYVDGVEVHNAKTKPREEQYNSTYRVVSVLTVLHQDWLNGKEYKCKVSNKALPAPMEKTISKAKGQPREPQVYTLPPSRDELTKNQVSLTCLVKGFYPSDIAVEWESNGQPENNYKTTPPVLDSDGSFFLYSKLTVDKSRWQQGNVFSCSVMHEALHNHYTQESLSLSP
light: B1 light
notes: also called Ho Ab I332_06M
B45: GpH7-A5/GpH7-B3 variant S337_16H/GpL16-k0 (antibody, human IgG1, kappa)
heavy 1: not shown
heavy 2: not shown
light: B1 light
notes: as for B1
B46: GpH7-A5/GpH7-B3 variant L328_06M/GpL16-k0 (antibody, human IgG1, kappa)
heavy 1: not shown
heavy 2: not shown
light: B1 light
notes: as for B1
B47: GpH7-B3 variant H268_10E/GpL16-k0 (antibody, human IgG1, kappa)
heavy: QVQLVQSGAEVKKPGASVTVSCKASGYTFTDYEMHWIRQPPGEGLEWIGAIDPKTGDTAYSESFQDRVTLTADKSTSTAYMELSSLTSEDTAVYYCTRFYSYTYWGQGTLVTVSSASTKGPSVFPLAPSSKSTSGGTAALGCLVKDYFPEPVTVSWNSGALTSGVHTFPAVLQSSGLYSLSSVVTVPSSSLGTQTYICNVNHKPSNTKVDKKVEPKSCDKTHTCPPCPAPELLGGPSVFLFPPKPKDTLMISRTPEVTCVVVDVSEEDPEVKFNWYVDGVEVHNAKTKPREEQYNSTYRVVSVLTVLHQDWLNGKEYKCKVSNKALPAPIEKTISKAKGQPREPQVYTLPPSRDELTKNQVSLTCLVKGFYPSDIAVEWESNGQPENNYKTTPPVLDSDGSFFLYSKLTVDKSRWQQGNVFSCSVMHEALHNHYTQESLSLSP
light: B1 light
notes: also called Ho Ab H268_10E
B48: GpH7-B3 variant I332_14T/GpL16-k0 (antibody, human IgG1, kappa)
heavy: not shown
light: B1 light
notes: also called Ho Ab I332_14T
B49: GpH7-A5/GpH7-B3 variant T335_15Y/GpL16-k0 (antibody, human IgG1, kappa)
heavy 1: not shown
heavy 2: not shown
light: B1 light
notes: as for B1

Assays:
[1] = biological target: T1, FcγRIIa H (FcγRIIa type H, His at position 131), extracellular domain with C-terminal His tag (human, UniProt P12318 34-217); test: SPR Biacore, relative binding, GpH7-A5/GpH7-B3/GpL16-k0 (HeCon Ab)=100
T1 construct: extracellular domain; also called FcgRIIa H; 2aH
T1 sequence (looked up): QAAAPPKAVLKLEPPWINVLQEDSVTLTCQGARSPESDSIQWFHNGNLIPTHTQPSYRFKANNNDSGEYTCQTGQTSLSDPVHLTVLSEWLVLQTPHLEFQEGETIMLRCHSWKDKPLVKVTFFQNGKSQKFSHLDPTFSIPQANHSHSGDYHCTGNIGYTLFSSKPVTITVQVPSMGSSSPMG
Procedure: (§1) Analysis of interaction between objective antibody and the FcγR was carried out using Biacore T100 (GE Healthcare). HBS-EP+ (GE Healthcare) was used as the running buffer, and the measurement temperature was set to 25° C. Chips produced by immobilizing the antigen peptide by the amine coupling method to a Series S Sencor Chip CM5 (GE Healthcare), or alternatively, chips produced by allowing preliminarily biotinylated antigen peptides to interact with and immobilize onto a Series S Sensor Chip SA (certified) (GE Healthcare) were used. Antibodies of interest were captured onto an antigen peptide-immobilized chip, and allowed to interact to each FcγR diluted with running buffer. To regenerate and repeatedly use the chip, the antibodies captured on the chip were washed off by reacting 10 mM glycine-HCl, pH 1.5.

[2] = biological target: T2, FcγRIIb extracellular domain with C-terminal His tag (human, UniProt P31994 43-217); test: SPR, relative binding, HoCon Ab = 100
T2 construct: extracellular domain; also called FcgRIIb; 2b; not shown: His tag at the C terminus
T2 sequence (looked up): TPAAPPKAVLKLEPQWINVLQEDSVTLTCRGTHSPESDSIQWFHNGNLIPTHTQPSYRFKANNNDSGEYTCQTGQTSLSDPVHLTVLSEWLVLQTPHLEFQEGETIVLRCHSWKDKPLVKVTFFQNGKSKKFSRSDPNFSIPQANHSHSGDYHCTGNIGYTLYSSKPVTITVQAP
Procedure: as §1

Row | He/Con_2aH [1] | Ho/Con_2b [2] | Binder
1 | 103 % of control |  | B1
2 |  | 170 % of control | B2
3 | 107 % of control |  | B3
4 |  | 102 % of control | B4
5 |  | 181 % of control | B5
6 | 102 % of control |  | B6
7 | 106 % of control |  | B7
8 |  | 158 % of control | B8
9 | 120 % of control |  | B9
10 | 106 % of control |  | B10
11 | 103 % of control |  | B11
12 | 107 % of control |  | B12
13 |  | 298 % of control | B13
14 |  | 114 % of control | B14
15 | 103 % of control |  | B15
16 | 103 % of control |  | B16
17 | 108 % of control |  | B17
18 |  | 182 % of control | B18
19 |  | 175 % of control | B19
20 |  | 186 % of control | B20
21 | 106 % of control |  | B21
22 | 105 % of control |  | B22
23 |  | 166 % of control | B23
24 | 118 % of control |  | B24
25 | 102 % of control |  | B25

Row | He/Con_2aH [1] | Ho/Con_2b [2] | Binder
26 |  | 140 % of control | B26
27 |  | 103 % of control | B27
28 | 117 % of control |  | B28
29 | 103 % of control |  | B29
30 | 102 % of control |  | B30
31 | 114 % of control |  | B31
32 | 108 % of control |  | B32
33 | 104 % of control |  | B33
34 |  | 117 % of control | B34
35 |  | 148 % of control | B35
36 |  | 179 % of control | B36
37 |  | 207 % of control | B37
38 |  | 109 % of control | B38
39 | 116 % of control |  | B39
40 | 123 % of control |  | B40
41 | 103 % of control |  | B41
42 | 130 % of control |  | B42
43 | 103 % of control |  | B43
44 |  | 106 % of control | B44
45 | 101 % of control |  | B45
46 | 104 % of control |  | B46
47 |  | 275 % of control | B47
48 |  | 106 % of control | B48
49 | 106 % of control |  | B49
